Laboratory results as given in publication PMC4173783.

What was measured:
[1] = target: Plasmodium falciparum EBA-175 region II (P. falciparum)
[2] = target: recombinant GpA extracellular domain fused to Fc and His tag (rGpA-Fc-His) (human) (UniProt P02724); experiment: AUC
[3] = target: recombinant GpA extracellular domain fused to Fc and His tag (rGpA-Fc-His) (human) (UniProt P02724); experiment: SDS-PAGE without and with reducing agent

In the case of “recombinant GpA extracellular domain fused to Fc and His tag (rGpA-Fc-His) (from UniProt P02724 23-84) (Fc fusion)”, the parasite growth with 30 µM rGpA, strains 3D7, Dd2 and FVO/FCR1 [1] is reported as 50%, the stoichiometry N [2] is reported as 2 and the stoichiometry N [3] is reported as 2.
